Results on 13 variants are retold here after PMC3796545, “Protein-Protein Interactions as a Strategy towards Protein-Specific Drug Design: The Example of Ataxin-1” (PLoS ONE, 2013).

First the molecules themselves.
B1: L-CICp [human] / ATX1 AXH (residues A567-K689 of human ATX1) [human] (parent complex)
chain 1: VFPWHSLVPFLAPSQ
chain 2: GAMAPPTLPPYFMKGSIIQLANGELKKVEDLKTEDFIQSAEISNDLKIDSSTVERIEDSHSPGVAVIQFAVGEHRAQVSVEVLVEYPFFVFGQGWSSCCPERTSQLFDLPCSKLSVGDVCISLTLK

The variants in the test derive from B1. The test is described as follows: ITC; parent: 30 nM. A general note: Isothermal titration calorimetry measures the heat released or taken up as one component is titrated into another.
Broadly, the Kd is the free concentration of one partner at which half of the binding sites on the other are occupied at equilibrium, for simple one-to-one binding. chain 1 W4A: the Kd came out at 2600 nM.

For chain 1 A12G, the Kd stood at 20 nM.

On to chain 1 L7A, for which the dissociation constant Kd is 500 nM.

Regarding chain 1 H5A, the Kd amounted to 50 nM.

In the case of chain 1 V8A, the Kd amounted to 70 nM.

On to chain 1 F10A, for which the Kd stood at 60 nM.

In the case of chain 1 V1A, the Kd amounted to 20 nM.

In the case of chain 1 P3A, the Kd came to 40 nM.

Take chain 1 F2A: the Kd worked out at 30 nM.

chain 1 P13A: the Kd amounted to 20 nM.

Turning to chain 1 L11A, the Kd came to 50 nM.

Turning to chain 1 P9A, the Kd worked out at 40 nM.

In the case of chain 1 S6A, the Kd amounted to 10 nM.
